Measurements reported in US20170266254A1 (AILERON THERAPEUTICS, published 2017).
Bridges are numbered along the chain shown (N, C = ends). [ ]: non-standard residue; d: D form. S5 = C=CCCC[C@](C)(N)C(=O)O

T1: C-terminally 6x Histidine-tagged Beta-Catenin (aa 134-668, 59 KD) (UniProt P35222 134-668)
T1 construct: range 134-668; Armadillo repeat region
T1 sequence: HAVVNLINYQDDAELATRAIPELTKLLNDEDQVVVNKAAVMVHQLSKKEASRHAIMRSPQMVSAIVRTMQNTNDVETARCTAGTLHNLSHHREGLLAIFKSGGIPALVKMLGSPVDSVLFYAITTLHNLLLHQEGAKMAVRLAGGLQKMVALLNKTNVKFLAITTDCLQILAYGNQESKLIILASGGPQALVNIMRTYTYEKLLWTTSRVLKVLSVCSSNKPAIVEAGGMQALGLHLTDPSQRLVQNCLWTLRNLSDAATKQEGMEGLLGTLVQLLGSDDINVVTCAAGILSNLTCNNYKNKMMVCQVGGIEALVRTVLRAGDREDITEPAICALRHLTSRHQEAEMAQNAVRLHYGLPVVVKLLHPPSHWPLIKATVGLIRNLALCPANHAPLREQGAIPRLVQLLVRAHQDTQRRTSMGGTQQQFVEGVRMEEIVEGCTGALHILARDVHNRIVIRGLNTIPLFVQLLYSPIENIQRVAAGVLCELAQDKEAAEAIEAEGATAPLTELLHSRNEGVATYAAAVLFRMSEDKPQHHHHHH


Target: T1, C-terminally 6x Histidine-tagged …
Test: competitive fluorescence polarization, FAM-labelled linear probe as competitor, His-tagged beta-catenin 134-668
Method: The following experiments are performed at room temperature unless otherwise noted. First, an assay buffer is prepared composed of 25 mM Tris-Hcl pH 7.5, 200 mM Sodium Chloride, and 5 mM CHAPS. Next, 1M DTT is added to assay buffer to a final concentration of 2 mM. […] Forty μl of this protein stock is added to all but six wells of a 96 well plate (which will serve as the free peptide and Blank). Test competitor peptides are diluted from 1 mM DMSO stocks to 2× working stocks in assay buffer. Further dilutions are made in assay buffer-DMSO as to maintain a constant DMSO concentration in all wells. The dilution is carried out such that the peptides have a working concentration range of 40 μM-0.7 μM (2×). As a benchmark, a linear, non-crosslinked peptide competitor is prepared as above but with a working concentration range of 13-0.7 μM. Fifty μl of the competitor 2× stocks are added to the 40 μl of protein solution previously transferred into the assay 96 well plate. Next, a 10× stock of the fluorescent probe is prepared. The probe is identical to the linear benchmark peptide except for the n-terminal conjugation of a FAM flourophore with Beta-Alanine spacer. A 1 mM DMSO stock of the probe is serially diluted to a final concentration of 25 nM (10×) and 10 μl of this stock is added to all wells except for those that will serve as the blank. The assay plate is stored in the dark and the reaction is allowed to run at room temperature for three hours. The reaction is then read on a Biotek Synergy 2 with the following settings: 100 ms delay, 40 measurements per well, with excitation filters of […], and emission filters of […]. Data is then analyzed in Graphpad Prism.

| Binder | IC50 [nM] |
| --- | --- |
| Ac-LGANDELISFKDEGEQEEKSSENSSAE[S5]DLA[S5]VKSSLV-NH2 (staple 28-32; SMILES CC[C@H](C)[C@H](NC(=O)[C@H](CC(C)C)NC(=O)[C@H](CCC(=O)O)NC(=O)[C@H](CC(=O)O)NC(=O)[C@H](CC(N)=O)NC(=O)[C@H](C)NC(=O)CNC(=O)[C@H](CC(C)C)NC(C)=O)C(=O)N[C@@H](CO)C(=O)N[C@@H](Cc1ccccc1)C(=O)N[C@@H](CCCCN)C(=O)N[C@@H](CC(=O)O)C(=O)N[C@@H](CCC(=O)O)C(=O)NCC(=O)N[C@@H](CCC(=O)O)C(=O)N[C@@H](CCC(N)=O)C(=O)N[C@@H](CCC(=O)O)C(=O)N[C@@H](CCC(=O)O)C(=O)N[C@@H](CCCCN)C(=O)N[C@@H](CO)C(=O)N[C@@H](CO)C(=O)N[C@@H](CCC(=O)O)C(=O)N[C@@H](CC(N)=O)C(=O)N[C@@H](CO)C(=O)N[C@@H](CO)C(=O)N[C@@H](C)C(=O)N[C@@H](CCC(=O)O)C(=O)N[C@@]1(C)CCCC=CCCC[C@@](C)(C(=O)N[C@H](C(=O)N[C@@H](CCCCN)C(=O)N[C@@H](CO)C(=O)N[C@@H](CO)C(=O)N[C@@H](CC(C)C)C(=O)N[C@H](C(N)=O)C(C)C)C(C)C)NC(=O)[C@H](C)NC(=O)[C@H](CC(C)C)NC(=O)[C@H](CC(=O)O)NC1=O) [SP31] | 248 |
| Ac-LGANDELISF[S5]DQG[S5]QEQKSSENSSA[S5]RDL[S5]NVKSSLV-NH2 (staple 11-15, 27-31; SMILES CC[C@H](C)[C@H](NC(=O)[C@H](CC(C)C)NC(=O)[C@H](CCC(=O)O)NC(=O)[C@H](CC(=O)O)NC(=O)[C@H](CC(N)=O)NC(=O)[C@H](C)NC(=O)CNC(=O)[C@H](CC(C)C)NC(C)=O)C(=O)N[C@@H](CO)C(=O)N[C@@H](Cc1ccccc1)C(=O)N[C@@]1(C)CCCC=CCCC[C@@](C)(C(=O)N[C@@H](CCC(N)=O)C(=O)N[C@@H](CCC(=O)O)C(=O)N[C@@H](CCC(N)=O)C(=O)N[C@@H](CCCCN)C(=O)N[C@@H](CO)C(=O)N[C@@H](CO)C(=O)N[C@@H](CCC(=O)O)C(=O)N[C@@H](CC(N)=O)C(=O)N[C@@H](CO)C(=O)N[C@@H](CO)C(=O)N[C@@H](C)C(=O)N[C@@]2(C)CCCC=CCCC[C@@](C)(C(=O)N[C@@H](CC(N)=O)C(=O)N[C@H](C(=O)N[C@@H](CCCCN)C(=O)N[C@@H](CO)C(=O)N[C@@H](CO)C(=O)N[C@@H](CC(C)C)C(=O)N[C@H](C(N)=O)C(C)C)C(C)C)NC(=O)[C@H](CC(C)C)NC(=O)[C@H](CC(=O)O)NC(=O)[C@H](CCCNC(=N)N)NC2=O)NC(=O)CNC(=O)[C@H](CCC(N)=O)NC(=O)[C@H](CC(=O)O)NC1=O) [SP48] | 461 |
| LGANDELISFANQGAQEEKSSNNSSAARNLADVKSSLV (not fully specified; N-terminal acetyl; C-terminal amide; $ = (S)-alpha-(2'-pentenyl)alanine at positions 11 and 15 (first crosslink) and 27 and 31 (second crosslink), each pair joined by an all-carbon crosslinker with one double bond) [SP57] | 407 |
| Ac-LGANDELISF[S5]DEG[S5]QEEKSSENSSA[S5]RDL[S5]NVKSSLV-NH2 (staple 11-15, 27-31; SMILES CC[C@H](C)[C@H](NC(=O)[C@H](CC(C)C)NC(=O)[C@H](CCC(=O)O)NC(=O)[C@H](CC(=O)O)NC(=O)[C@H](CC(N)=O)NC(=O)[C@H](C)NC(=O)CNC(=O)[C@H](CC(C)C)NC(C)=O)C(=O)N[C@@H](CO)C(=O)N[C@@H](Cc1ccccc1)C(=O)N[C@@]1(C)CCCC=CCCC[C@@](C)(C(=O)N[C@@H](CCC(N)=O)C(=O)N[C@@H](CCC(=O)O)C(=O)N[C@@H](CCC(=O)O)C(=O)N[C@@H](CCCCN)C(=O)N[C@@H](CO)C(=O)N[C@@H](CO)C(=O)N[C@@H](CCC(=O)O)C(=O)N[C@@H](CC(N)=O)C(=O)N[C@@H](CO)C(=O)N[C@@H](CO)C(=O)N[C@@H](C)C(=O)N[C@@]2(C)CCCC=CCCC[C@@](C)(C(=O)N[C@@H](CC(N)=O)C(=O)N[C@H](C(=O)N[C@@H](CCCCN)C(=O)N[C@@H](CO)C(=O)N[C@@H](CO)C(=O)N[C@@H](CC(C)C)C(=O)N[C@H](C(N)=O)C(C)C)C(C)C)NC(=O)[C@H](CC(C)C)NC(=O)[C@H](CC(=O)O)NC(=O)[C@H](CCCNC(=N)N)NC2=O)NC(=O)CNC(=O)[C@H](CCC(=O)O)NC(=O)[C@H](CC(=O)O)NC1=O) [SP47] | 176 |
| LGANDELISFADEGAQEEKSSNNSSAEADLAAVKSSLV (not fully specified; N-terminal acetyl; C-terminal amide; $ = (S)-alpha-(2'-pentenyl)alanine at positions 11 and 15 (first crosslink) and 28 and 32 (second crosslink), each pair joined by an all-carbon crosslinker with one double bond) [SP38] | 83 |
| LGANDELISFADEGAQEEKSSNNSSAARDLAAVKSSLV (not fully specified; N-terminal acetyl; C-terminal amide; $ = (S)-alpha-(2'-pentenyl)alanine at positions 11 and 15 (first crosslink) and 27 and 31 (second crosslink), each pair joined by an all-carbon crosslinker with one double bond) [SP59] | 300 |
| Ac-LGANDELLSF[S5]DEG[S5]QQEKSSENSSA[S5]RDL[S5]NVKSSLV-NH2 (staple 11-15, 27-31; SMILES CC(=O)N[C@@H](CC(C)C)C(=O)NCC(=O)N[C@@H](C)C(=O)N[C@@H](CC(N)=O)C(=O)N[C@@H](CC(=O)O)C(=O)N[C@@H](CCC(=O)O)C(=O)N[C@@H](CC(C)C)C(=O)N[C@@H](CC(C)C)C(=O)N[C@@H](CO)C(=O)N[C@@H](Cc1ccccc1)C(=O)N[C@@]1(C)CCCC=CCCC[C@@](C)(C(=O)N[C@@H](CCC(N)=O)C(=O)N[C@@H](CCC(N)=O)C(=O)N[C@@H](CCC(=O)O)C(=O)N[C@@H](CCCCN)C(=O)N[C@@H](CO)C(=O)N[C@@H](CO)C(=O)N[C@@H](CCC(=O)O)C(=O)N[C@@H](CC(N)=O)C(=O)N[C@@H](CO)C(=O)N[C@@H](CO)C(=O)N[C@@H](C)C(=O)N[C@@]2(C)CCCC=CCCC[C@@](C)(C(=O)N[C@@H](CC(N)=O)C(=O)N[C@H](C(=O)N[C@@H](CCCCN)C(=O)N[C@@H](CO)C(=O)N[C@@H](CO)C(=O)N[C@@H](CC(C)C)C(=O)N[C@H](C(N)=O)C(C)C)C(C)C)NC(=O)[C@H](CC(C)C)NC(=O)[C@H](CC(=O)O)NC(=O)[C@H](CCCNC(=N)N)NC2=O)NC(=O)CNC(=O)[C@H](CCC(=O)O)NC(=O)[C@H](CC(=O)O)NC1=O) [SP58] | 324 |
| Ac-LGANDELISF[S5]DEG[S5]QQQKSSENSSA[S5]RDL[S5]NVKSSLV-NH2 (staple 11-15, 27-31; SMILES CC[C@H](C)[C@H](NC(=O)[C@H](CC(C)C)NC(=O)[C@H](CCC(=O)O)NC(=O)[C@H](CC(=O)O)NC(=O)[C@H](CC(N)=O)NC(=O)[C@H](C)NC(=O)CNC(=O)[C@H](CC(C)C)NC(C)=O)C(=O)N[C@@H](CO)C(=O)N[C@@H](Cc1ccccc1)C(=O)N[C@@]1(C)CCCC=CCCC[C@@](C)(C(=O)N[C@@H](CCC(N)=O)C(=O)N[C@@H](CCC(N)=O)C(=O)N[C@@H](CCC(N)=O)C(=O)N[C@@H](CCCCN)C(=O)N[C@@H](CO)C(=O)N[C@@H](CO)C(=O)N[C@@H](CCC(=O)O)C(=O)N[C@@H](CC(N)=O)C(=O)N[C@@H](CO)C(=O)N[C@@H](CO)C(=O)N[C@@H](C)C(=O)N[C@@]2(C)CCCC=CCCC[C@@](C)(C(=O)N[C@@H](CC(N)=O)C(=O)N[C@H](C(=O)N[C@@H](CCCCN)C(=O)N[C@@H](CO)C(=O)N[C@@H](CO)C(=O)N[C@@H](CC(C)C)C(=O)N[C@H](C(N)=O)C(C)C)C(C)C)NC(=O)[C@H](CC(C)C)NC(=O)[C@H](CC(=O)O)NC(=O)[C@H](CCCNC(=N)N)NC2=O)NC(=O)CNC(=O)[C@H](CCC(=O)O)NC(=O)[C@H](CC(=O)O)NC1=O) [SP49] | 1650 |
